Substrate: N[C@@H](CC(=O)O)C(=O)O
Assay: GLOX/HRP-coupled enzyme kinetics
Type: biochemical, Homo sapiens
Details: PLP

B1: GOT1 (glutamate oxaloacetate transaminase 1, aspartate aminotransferase 1) (Homo sapiens) (protein)
chain: APPSVFAEVPQAQPVLVFKLTADFREDPDPRKVNLGVGAYRTDDCHPWVLPVVKKVEQKIANDNSLNHEYLPILGLAEFRSCASRLALGDDSPALKEKRVGGVQSLGGTGALRIGADFLARWYNGTNNKNTPVYVSSPTWENHNAVFSAAGFKDIRSYRYWDAEKRGLDLQGFLNDLENAPEFSIVVLHACAHNPTGIDPTPEQWKQIASVMKHRFLFPFFDSAYQGFASGNLERDAWAIRYFVSEGFEFFCAQSFSKNFGLYNERVGNLTVVGKEPESILQVLSQMEKIVRITWSNPPAQGARIVASTLSNPELFEEWTGNVKTMADRILTMRSELRARLEALKTPGTWNHITDQIGMFSFTGLNPKQVEYLVNEKHIYLLPSGRINVSGLTTKNLDYVATSIHEAVTKIQ
B1 was tested, and the Km was 4 mM.

— publication PMC6487875
